Assay results published in US20070036799A1.
Where two headings read alike, the source gives them in different places.

Legend:
[1] = molecular target: FcγRIIB-Fc fusion protein (soluble dimeric FcγRIIB) (human) (UniProt P31994); assay: SPR
[2] = molecular target: soluble monomeric FcγRIIIA-linker-AVITAG (158V), biotinylated (human) (UniProt P08637); assay: SPR
Target sequence in this assay (P08637 17-203 F176V limits assumed, form in doubt): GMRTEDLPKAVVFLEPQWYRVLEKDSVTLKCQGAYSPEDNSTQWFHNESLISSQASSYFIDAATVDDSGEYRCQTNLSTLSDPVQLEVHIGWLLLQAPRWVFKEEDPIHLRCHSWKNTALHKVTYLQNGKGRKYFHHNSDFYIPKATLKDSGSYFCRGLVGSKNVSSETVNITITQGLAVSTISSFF

[3] = molecular target: FcγRIIB-Fc fusion protein (soluble dimeric FcγRIIB) (human) (UniProt P31994); assay: SPR; remark: listed apart in the source
[4] = molecular target: FcγRIIB-Fc fusion protein (soluble dimeric FcγRIIB) (human) (UniProt P31994); assay: ELISA
[5] = molecular target: soluble monomeric FcγRIIIA-linker-AVITAG (158V), biotinylated (human) (UniProt P08637); assay: ELISA
[6] = molecular target: FcγRIIB-Fc fusion protein (soluble dimeric FcγRIIB) (human) (UniProt P31994); assay: BIAcore, separate fits at two concentrations of FcγRIIB-Fc, average (Table 18 prints 0.085)
[7] = molecular target: C1q; assay: SPR (BIAcore): 2B6 antibody captured on soluble CD32B (2bLAvi) on a CM-5 chip, C1q injected in a dilution series
[8] = molecular target: yeast-displayed wild type CH1-CH3 Fc fusion (pYD-CH1) (human) [IgG part: P01857]; assay: FACS titration on yeast, MFI, nonlinear regression
[9] = molecular target: monomeric human IgG; assay: ELISA: plate coated with human IgG, receptor titrated, detection with DJ130c and anti-mouse peroxidase
[10] = molecular target: C1q; assay: SPR (BIAcore): 2B6 antibody captured on soluble CD32B (2bLAvi) on a CM-5 chip, C1q injected at 0.8-26 nM

Sequence of C1q (P02745 23-245, chain 1 of 3): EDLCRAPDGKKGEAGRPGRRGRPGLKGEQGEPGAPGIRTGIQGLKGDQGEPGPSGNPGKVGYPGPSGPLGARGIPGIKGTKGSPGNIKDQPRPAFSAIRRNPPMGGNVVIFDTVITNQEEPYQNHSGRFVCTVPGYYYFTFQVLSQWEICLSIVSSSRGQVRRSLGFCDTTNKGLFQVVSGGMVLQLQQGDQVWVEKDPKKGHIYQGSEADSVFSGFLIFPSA
Sequence of C1q (P02746 28-253, chain 2 of 3, further chain): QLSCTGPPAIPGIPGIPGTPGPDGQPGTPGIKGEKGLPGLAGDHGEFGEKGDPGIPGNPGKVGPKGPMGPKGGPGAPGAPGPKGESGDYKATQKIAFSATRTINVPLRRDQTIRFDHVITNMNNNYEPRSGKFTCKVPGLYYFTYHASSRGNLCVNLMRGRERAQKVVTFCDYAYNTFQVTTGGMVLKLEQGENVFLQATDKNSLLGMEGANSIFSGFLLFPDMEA
Sequence of C1q (P02747 29-245, chain 3 of 3, further chain): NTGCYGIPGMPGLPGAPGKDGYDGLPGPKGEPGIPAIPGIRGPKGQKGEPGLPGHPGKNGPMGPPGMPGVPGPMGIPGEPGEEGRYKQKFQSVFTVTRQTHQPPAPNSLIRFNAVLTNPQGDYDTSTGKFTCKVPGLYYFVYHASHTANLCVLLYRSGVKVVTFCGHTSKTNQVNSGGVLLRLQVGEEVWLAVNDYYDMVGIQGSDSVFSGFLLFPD
Sequence of FcγRIIB-Fc fusion protein (soluble dimeric FcγRIIB) (human) (P31994 43-217): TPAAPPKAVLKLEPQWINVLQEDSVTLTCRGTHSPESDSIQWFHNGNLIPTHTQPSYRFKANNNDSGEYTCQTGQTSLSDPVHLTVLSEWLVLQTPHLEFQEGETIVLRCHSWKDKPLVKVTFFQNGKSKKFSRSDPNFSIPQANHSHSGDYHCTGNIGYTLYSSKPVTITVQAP

“chimeric 4-4-20 anti-fluorescein antibody, wild type Fc” gave a Kd [1] of 94 nM, a koff [1] of 0.094 s⁻¹ and a Kd [2] of 319 nM. The kon [2] was 600000 M⁻¹ s⁻¹, the Kd [3] was 61.4 nM and the koff [3] was 0.085 s⁻¹. It also gave an ELISA, OD [4] of 0.4 OD, an ELISA, OD [5] of 0.5 OD and a koff [6] of 0.0847 s⁻¹.
In the case of “2B6 (lower panel of FIG. 36B, Fc region not labelled) (antibody)”, the Kd [7] is reported as 7 nM and the koff [7] is reported as 0.06 s⁻¹.
In the case of ch4-4-20 S415I, L251F (antibody), the fold vs wt [4] is reported as 0.75 x increase and the fold vs wt [5] is reported as 0.5 x increase.
“ch4-4-20 K392T, P396L (from UniProt P01857 1-330) (antibody)” gave a Kd [2] of 84 nM.
“soluble FcγRIIIA tetrameric complex (from UniProt P08637 1-203) (receptor)” showed a Kd [8] of 6 nM and an EC50 (read off the curve) [9] of 1 µg/mL.
Substance “2B6 (upper panel of FIG. 36B, Fc region not labelled) (antibody)” has a koff [10] of 0.13 s⁻¹.
